Data from the supplement of paper PMC11246515.
± gives the standard deviation of the averaged measurements.

Experiment: total protein half-life in vivo (active degradation + dilution); higher = more stable protein
[1] = E. coli NCM3722 delta-clpP delta-lon delta-hslV, growth: N-lim chemostat, doubling time 6 h
[2] = E. coli NCM3722 delta-clpP, growth: N-lim chemostat, doubling time 6 h
[3] = E. coli NCM3722 delta-hslV, growth: N-lim chemostat, doubling time 6 h
[4] = E. coli NCM3722 delta-lon, growth: N-lim chemostat, doubling time 6 h
[5] = E. coli NCM3722 delta-smpB, growth: N-lim chemostat, doubling time 6 h
[6] = wild type E. coli NCM3722, growth: C-lim chemostat, doubling time 3 h
[7] = wild type E. coli NCM3722, growth: C-lim chemostat, doubling time 6 h
[8] = wild type E. coli NCM3722, growth: C-lim chemostat, doubling time 12 h
[9] = wild type E. coli NCM3722, growth: N-lim chemostat, doubling time 6 h
[10] = wild type E. coli NCM3722, growth: N-lim chemostat, doubling time 12 h
[11] = wild type E. coli NCM3722, growth: P-lim chemostat, doubling time 6 h
[12] = wild type E. coli NCM3722, growth: P-lim chemostat, doubling time 12 h

Sequence	total protein half-life in vivo [1] [h]	total protein half-life in vivo [2] [h]	total protein half-life in vivo [3] [h]	total protein half-life in vivo [4] [h]	total protein half-life in vivo [5] [h]	total protein half-life in vivo [6] [h]	total protein half-life in vivo [7] [h]	total protein half-life in vivo [8] [h]	total protein half-life in vivo [9] [h]	total protein half-life in vivo [10] [h]	total protein half-life in vivo [11] [h]	total protein half-life in vivo [12] [h]
MDQKQIEEIVRSVMASMGQAAPAPSEAKCATTNCAAPVTSESCALDLGSAEAKAWIGVENPHRADVLTELRRSTVARVCTGRAGPRPRTQALLRFLADHSRSKDTVLKEVPEEWVKAQGLLEVRSEISDKNLYLTRPDMGRRLCAEAVEALKAQCVANPDVQVVISDGLSTDAITVNYEEILPPLMAGLKQAGLKVGTPFFVRYGRVKIEDQIGEILGAKVVILLVGERPGLGQSESLSCYAVYSPRMATTVEADRTCISNIHQGGTPPVEAAAVIVDLAKRMLEQKASGINMTR	5.05 ± 0.91	3.65 ± 0.13	3.19 ± 0.053	4.21 ± 0.95	3.11 ± 0.17	2.6 ± 0.1	5.43 ± 0.85	8.48 ± 0.82	3.41 ± 0.32	4.31 ± 0.15	4.69 ± 0.096	9.58 ± 0.56
MDRDQTNSSLFNDDPVLHATWLYYQEGKSQTEVAAIMGVSRVTVVKYLQTARENGLVHINLDVNVFGSIDAALQIRDKFNLQRVIIVPDGEHAGKRDDTKLMRTRLSRAGGMYLNQVIENGDVLGVAWGRTIHQMSKTMTPKSCKNVTVIQMLGSMPSQPDLTIIESSSQIAYKLSGRVASLHVPAVVSSARLAMELQAEPIIRSNFDVLTRCTKAFFVVGNALDENPLIRVGVLNKKEMQTYRDLGAVGVICGRFYDKEGMPVVADVDQRILGISLAQLRQIERKIFLAGGERGYDATLGALLGGYVTDLIVDEGTAEFLLACELPH	7.27 ± 0.75	6.31 ± 0.21	6.85 ± 0.93	6.37 ± 0.93	5.92 ± 0.29	3.03 ± 0.26	6.27 ± 0.17	11.5 ± 2.3	5.82 ± 0.46	11.9 ± 0.26	5.93 ± 0.12	12 ± 0.53
MDRFPRSDSIVQPRAGLQTYMAQVYGWMTVGLLLTAFVAWYAANSAAVMELLFTNRVFLIGLIIAQLALVIVLSAMIQKLSAGVTTMLFMLYSALTGLTLSSIFIVYTAASIASTFVVTAGMFGAMSLYGYTTKRDLSGFGNMLFMALIGIVLASLVNFWLKSEALMWAVTYIGVIVFVGLTAYDTQKLKNMGEQIDTRDTSNLRKYSILGALTLYLDFINLFLMLLRIFGNRR [P0AAC4]	–	3.08	–	2.51	2.75	2.15 ± 0.5	2.98	6.02	3.09	5.33	3.85 ± 0.28	6.88 ± 0.24
MDRIIEKLDHGWWVVSHEQKLWLPKGELPYGEAANFDLVGQRALQIGEWQGEPVWLVQQQRRHDMGSVRQVIDLDVGLFQLAGRGVQLAEFYRSHKYCGYCGHEMYPSKTEWAMLCSHCRERYYPQIAPCIIVAIRRDDSILLAQHTRHRNGVHTVLAGFVEVGETLEQAVAREVMEESGIKVKNLRYVTSQPWPFPQSLMTAFMAEYDSGDIVIDPKELLEANWYRYDDLPLLPPPGTVARRLIEDTVAMCRAEYE	–	5.5 ± 1.5	5.52 ± 2	4.5929 ± 0.0003	4.57 ± 0.72	3.06 ± 1.1	5.09 ± 0.28	11.1 ± 0.68	4.5 ± 0.24	6.936 ± 0.055	5.97 ± 0.23	11.17 ± 0.051
MDRRRFIKGSMAMAAVCGTSGIASLFSQAAFAADSDIADGQTQRFDFSILQSMAHDLAQTAWRGAPRPLPDTLATMTPQAYNSIQYDAEKSLWHNVENRQLDAQFFHMGMGFRRRVRMFSVDPATHLAREIHFRPELFKYNDAGVDTKQLEGQSDLGFAGFRVFKAPELARRDVVSFLGASYFRAVDDTYQYGLSARGLAIDTYTDSKEEFPDFTAFWFDTVKPGATTFTVYALLDSASITGAYKFTIHCEKSQVIMDVENHLYARKDIKQLGIAPMTSMFSCGTNERRMCDTIHPQIHDSDRLSMWRGNGEWICRPLNNPQKLQFNAYTDNNPKGFGLLQLDRDFSHYQDIMGWYNKRPSLWVEPRNKWGKGTIGLMEIPTTGETLDNIVCFWQPEKAVKAGDEFAFQYRLYWSAQPPVHCPLARVMATRTGMGGFSEGWAPGEHYPEKWARRFAVDFVGGDLKAAAPKGIEPVITLSSGEAKQIEILYIEPIDGYRIQFDWYPTSDSTDPVDMRMYLRCQGDAISETWLYQYFPPAPDKRQYVDDRVMS	6.6 ± 0.085	6.09 ± 0.27	5.73 ± 0.087	5.99 ± 0.14	5.86 ± 0.28	3.22 ± 0.084	6.205 ± 0.046	12.5 ± 1.2	6.44 ± 0.42	12.6 ± 0.7	6.71 ± 0.95	12.628 ± 0.0049
MDSARALIARGWGVSLVSRCLRVSRAQLHVILRRTDDWMDGRRSRHTDDTDVLLRIHHVIGELPTYGYRRVWALLRRQAELDGMPAINAKRVYRIMRQNALLLERKPAVPPSKRAHTGRVAVKESNQRWCSDGFEFCCDNGERLRVTFALDCCDREALHWAVTTGGFNSETVQDVMLGAVERRFGNDLPSSPVEWLTDNGSCYRANETRQFARMLGLEPKNTAVRSPESNGIAESFVKTIKRDYISIMPKPDGLTAAKNLAEAFEHYNEWHPHSALGYRSPREYLRQRACNGLSDNRCLEI [P0CF53]	5.39 ± 1.7	–	–	–	–	–	–	–	–	–	–	–
MDSHTLIQALIYLGSAALIVPIAVRLGLGSVLGYLIAGCIIGPWGLRLVTDAESILHFAEIGVVLMLFIIGLELDPQRLWKLRAAVFGCGALQMVICGGLLGLFCMLLGLRWQVAELIGMTLALSSTAIAMQAMNERNLMVTQMGRSAFAVLLFQDIAAIPLVAMIPLLATSSASTTMGAFALSALKVAGALVLVVLLGRYVTRPALRFVARSGLREVFSAVALFLVFGFGLLLEEVGLSMAMGAFLAGVLLASSEYRHALESDIEPFKGLLLGLFFIGVGMSIDFGTLLENPLRIVILLLGFLIIKIAMLWLIARPLQVPNKQRRWFAVLLGQGSEFAFVVFGAAQMANVLEPEWAKSLTLAVALSMAATPILLVILNRLEQSSTEEAREADEIDEEQPRVIIAGFGRFGQITGRLLLSSGVKMVVLDHDPDHIETLRKFGMKVFYGDATRMDLLESAGAAKAEVLINAIDDPQTNLQLTEMVKEHFPHLQIIARARDVDHYIRLRQAGVEKPERETFEGALKTGRLALESLGLGPYEARERADVFRRFNIQMVEEMAMVENDTKARAAVYKRTSAMLSEIITEDREHLSLIQRHGWQGTEEGKHTGNMADEPETKPSS	–	7.26 ± 1	6.68 ± 1.4	6.07 ± 0.42	6.12 ± 0.22	3.62 ± 0.14	6.07 ± 0.45	13.1 ± 0.2	6.452 ± 0.033	11.9 ± 1.1	6.64 ± 0.37	12.2 ± 1.2
MDSSFTPIEQMLKFRASRHEDFPYQEILLTRLCMHMQSKLLENRNKMLKAQGINETLFMALITLESQENHSIQPSELSCALGSSRTNATRIADELEKRGWIERRESDNDRRCLHLQLTEKGHEFLREVLPPQHNCLHQLWSALSTTEKDQLEQITRKLLSRLDQMEQDGVVLEAMS [P0ACR9]	6.37 ± 0.21	6.705 ± 0.017	5.82 ± 1	5.39 ± 0.61	4.81 ± 0.11	2.7 ± 0.27	5.49 ± 0.42	11 ± 0.57	4.78 ± 0.44	7.04 ± 0.45	4.86 ± 0.51	9.8 ± 0.2
MDTKKIFKHIPWVILGIIGAFCLAVVALRRGEHISALWIVVASVSVYLVAYRYYSLYIAQKVMKLDPTRATPAVINNDGLNYVPTNRYVLFGHHFAAIAGAGPLVGPVLAAQMGYLPGTLWLLAGVVLAGAVQDFMVLFISSRRNGASLGEMIKEEMGPVPGTIALFGCFLIMIIILAVLALIVVKALAESPWGVFTVCSTVPIALFMGIYMRFIRPGRVGEVSVIGIVLLVASIYFGGVIAHDPYWGPALTFKDTTITFALIGYAFVSALLPVWLILAPRDYLATFLKIGVIVGLALGIVVLNPELKMPAMTQYIDGTGPLWKGALFPFLFITIACGAVSGFHALISSGTTPKLLANETDARFIGYGAMLMESFVAIMALVAASIIEPGLYFAMNTPPAGLGITMPNLHEMGGENAPIIMAQLKDVTAHAAATVSSWGFVISPEQILQTAKDIGEPSVLNRAGGAPTLAVGIAHVFHKVLPMADMGFWYHFGILFEALFILTALDAGTRSGRFMLQDLLGNFIPFLKKTDSLVAGIIGTAGCVGLWGYLLYQGVVDPLGGVKSLWPLFGISNQMLAAVALVLGTVVLIKMKRTQYIWVTVVPAVWLLICTTWALGLKLFSTNPQMEGFFYMASQYKEKIANGTDLTAQQIANMNHIVVNNYTNAGLSILFLIVVYSIIFYGFKTWLAVRNSDKRTDKETPYVPIPEGGVKISSHH	5.48 ± 0.6	–	4.43	4.19 ± 0.26	5.39 ± 0.18	> 4	4.24	6.86	5.42 ± 2.2	9.16 ± 0.46	5.57 ± 0.48	8.62 ± 0.6
